# Numbered stars: 1 amine (or outer) side, 2 acyl side, 3 side chain; on linkers, the order of the positions; unused ones are H or OH. Bridge positions count the residues as written; N and C are the ends. Side chains are listed from the residue outwards. Ends that are not written are not given here. * marks the point of attachment. C20 diacid = O=C(O)CCCCCCCCCCCCCCCCCCC(=O)*; γGlu = O=C(O)[C@H](CCC(=O)[*:2])N[*:1]; AEEA = NCCOCCOCC(=O)O
# T1: human calcitonin receptor (human, UniProt P30988 25-474)
# T1 construct: whole, on cells; Assay used cell membranes of the transfected BHK cells; also called hCTR; hCT
# T1 sequence (looked up): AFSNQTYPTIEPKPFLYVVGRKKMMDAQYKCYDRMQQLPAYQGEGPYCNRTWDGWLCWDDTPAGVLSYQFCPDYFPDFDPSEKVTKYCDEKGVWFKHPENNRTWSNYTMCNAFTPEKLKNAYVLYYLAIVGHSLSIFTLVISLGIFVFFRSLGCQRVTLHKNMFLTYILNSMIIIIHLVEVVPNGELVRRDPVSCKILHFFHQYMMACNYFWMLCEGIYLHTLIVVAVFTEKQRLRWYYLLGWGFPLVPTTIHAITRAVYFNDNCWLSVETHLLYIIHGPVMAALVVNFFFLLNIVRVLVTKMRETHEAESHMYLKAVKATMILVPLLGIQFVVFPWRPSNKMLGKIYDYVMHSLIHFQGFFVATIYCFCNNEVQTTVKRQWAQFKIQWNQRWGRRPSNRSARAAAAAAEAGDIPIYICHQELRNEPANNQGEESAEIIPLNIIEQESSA
# Key:
# [1] = biological target: T1, human calcitonin receptor; assay: SPA radioligand competition (125I-calcitonin), membranes of BHK cells with human calcitonin receptor
# How it was run: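 BHK hCTR membranes 35 ng/μL + SPA beads 0.05 mg/well; buffer 50 mM Hepes pH 7.4, 1 mM CaCl2, 5 mM MgCl₂, 0.1% OA, 0.02% Tween20. 120 min, 25° C., shaking. Scintillation count; IC50 by one-site binding competition.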
# [2] = biological target: T1, human calcitonin receptor; assay: ratio IC50 hCTR / IC50 hAmylin-R of the two SPA competition assays; reference: human amylin receptor
# How it was run: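 Competition binding by SPA with cell membranes (35 ng/μL) and SPA beads in 50 mM Hepes pH 7.4 with 1 mM CaCl2, 5 mM MgCl2, 0.1% OA and 0.02% Tween20. Incubated 120 min at 25 °C with shaking, then counted.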
Binder,IC50 [1],Ratio hCT/hAmylin binding [2]
"{C20 diacid-γGlu}-GRCNTATCATQRLANFLRHSSPNFGAIPSSTNVGSNTY-NH2 (disulfide 3-8; SMILES CC[C@H](C)[C@H](NC(=O)[C@H](C)NC(=O)CNC(=O)[C@H](Cc1ccccc1)NC(=O)[C@H](CC(N)=O)NC(=O)[C@@H]1CCCN1C(=O)[C@H](CO)NC(=O)[C@H](CO)NC(=O)[C@H](Cc1c[nH]cn1)NC(=O)[C@H](CCCNC(=N)N)NC(=O)[C@H](CC(C)C)NC(=O)[C@H](Cc1ccccc1)NC(=O)[C@H](CC(N)=O)NC(=O)[C@H](C)NC(=O)[C@H](CC(C)C)NC(=O)[C@H](CCCNC(=N)N)NC(=O)[C@H](CCC(N)=O)NC(=O)[C@@H](NC(=O)[C@H](C)NC(=O)[C@@H]1CSSC[C@H](NC(=O)[C@H](CCCNC(=N)N)NC(=O)CNC(=O)CC[C@H](NC(=O)CCCCCCCCCCCCCCCCCCC(=O)O)C(=O)O)C(=O)N[C@@H](CC(N)=O)C(=O)N[C@@H]([C@@H](C)O)C(=O)N[C@@H](C)C(=O)N[C@@H]([C@@H](C)O)C(=O)N1)[C@@H](C)O)C(=O)N1CCC[C@H]1C(=O)N[C@@H](CO)C(=O)N[C@@H](CO)C(=O)N[C@H](C(=O)N[C@@H](CC(N)=O)C(=O)N[C@H](C(=O)NCC(=O)N[C@@H](CO)C(=O)N[C@@H](CC(N)=O)C(=O)N[C@H](C(=O)N[C@@H](Cc1ccc(O)cc1)C(N)=O)[C@@H](C)O)C(C)C)[C@@H](C)O, Synthetic analogue, extended by Gly at the N-terminus; also called compound 46) [N^-1-[(4S)-4-carboxy-4-(19-carboxynonadecanoylamino)butanoyl]-Gly[Arg1,Arg17,Pro21,Pro27]-h-amylin]",9.53 nM,48.9
"K([AEEA-γGlu-C20 diacid])RCNTATCATQRLANFLRHSSPNFGAIPSSTNVGSHTY-NH2 (disulfide 3-8; N-terminus assumed; SMILES CC[C@H](C)[C@H](NC(=O)[C@H](C)NC(=O)CNC(=O)[C@H](Cc1ccccc1)NC(=O)[C@H](CC(N)=O)NC(=O)[C@@H]1CCCN1C(=O)[C@H](CO)NC(=O)[C@H](CO)NC(=O)[C@H](Cc1c[nH]cn1)NC(=O)[C@H](CCCNC(=N)N)NC(=O)[C@H](CC(C)C)NC(=O)[C@H](Cc1ccccc1)NC(=O)[C@H](CC(N)=O)NC(=O)[C@H](C)NC(=O)[C@H](CC(C)C)NC(=O)[C@H](CCCNC(=N)N)NC(=O)[C@H](CCC(N)=O)NC(=O)[C@@H](NC(=O)[C@H](C)NC(=O)[C@@H]1CSSC[C@H](NC(=O)[C@H](CCCNC(=N)N)NC(=O)[C@@H](N)CCCCNC(=O)COCCOCCNC(=O)CC[C@H](NC(=O)CCCCCCCCCCCCCCCCCCC(=O)O)C(=O)O)C(=O)N[C@@H](CC(N)=O)C(=O)N[C@@H]([C@@H](C)O)C(=O)N[C@@H](C)C(=O)N[C@@H]([C@@H](C)O)C(=O)N1)[C@@H](C)O)C(=O)N1CCC[C@H]1C(=O)N[C@@H](CO)C(=O)N[C@@H](CO)C(=O)N[C@H](C(=O)N[C@@H](CC(N)=O)C(=O)N[C@H](C(=O)NCC(=O)N[C@@H](CO)C(=O)N[C@@H](Cc1c[nH]cn1)C(=O)N[C@H](C(=O)N[C@@H](Cc1ccc(O)cc1)C(N)=O)[C@@H](C)O)C(C)C)[C@@H](C)O, Synthetic analogue, extended by Lys at the N-terminus; also called compound 45)",14.8 nM,26.8

# From patent US20140087995A1 (published 2014)
